Data published in patent US20220073643A1.

What follows are binders tested against Claudin18.2-His protein (human) (assay: indirect ELISA on coated Claudin18.2-His).

| EC50 | Binder |
| --- | --- |
| 0.028 µg/mL | 217D9G2 (antibody, V domains shown) VH: QAYLQQSGAELVRSGASVKMSCKASGFTFTSYNIHWVKQTPGQGLEWIGYISPGNGGSNYNLNFKDKATLTAATSSTTAYMQISSLTSEDSAVYFCATGRGFAYWGQGTLVTVSA VL: DIVMTQSPSSLTVTPGEKVTMSCRSSQSLFNSGNQKNYLIWYQQKPGQPPKLLIYRASTRDSGVPDRFTGSGSGTDFTLTISNVQAEDLAVYYCQNDYSYPLTFGAGTKLELK |
| 0.0545 µg/mL | 420H7E6 (antibody, V domains shown) VH: DVQLVESGGGLVQPGGSRKLSCVTSGFTFSSFGMHWIRQAPEKGLEWVAFISGGGSPIFYADSVKGRFTVSRDNPKNTLFLQMTGLRSEDTAMYFCARFYFGNSFAYWGQGTLVTVSA VL: DIVMAQSPSSLTVTAGEKVTMNCRSSQSLFNSGNQKNYLTWYQQKPGQPPKLLIYWASTRESGVPVRFTGSGSGTDFTLTISSVQAEDLAVYYCQTGFSYPLTFGPGTKLELK |
| 0.0297 µg/mL | 423C10E1 (antibody, V domains shown) VH: DVQLVESGGGLVQPGGSRKLSCVTSGFTFSSFGMHWVRQAPEKGLEWVAFISGGGSPIFYADSVKGRFTVSRDNPKNTLFLQMTGLRSEDTAMYFCARFYFGNSFAYWGQGTLVTVSA VL: DIVMTQSPSSLTVTAGEKVTMNCRSSQSLFNSGNQKNYLTWYQQKPGQSPKLLIYWASTRESGVPVRFTGSGSGTDFTLTISSVQAEDLAVYYCQTSFNYPLTFGPGTKLELK |
| 0.0351 µg/mL | 61H12G10 (antibody, V domains shown) VH: QVQLKESGPGLVAPSQSLSITCTVSGFSLTDYGVSWIRQPPGKGLEWLGVIWGGGSTYYNSALKSRLIISKDNSKSQVFLKMNSLQTDDTAIYYCAKHHYGNACDYWGQGTTLTVSS VL: DIVMTQSPSSLTVTAGEKVTMSCKSSQSLFNSGNLKNYLTWYQQKPGQPPKLLICWASTRESGVPDRFTGSGSGTEFTLTISSVQAEDLAVYYCQNDYSYPFTFGSGTKLEIK |
| 0.00266 µg/mL | 69D5C1 (antibody, V domains shown) VH: EVKLVESGGGLVQPGGSRKLSCAASGFTFRDYGMAWVRQAPGKGPEWITFISNLAYSIYYADTVTGRFTISTENAKNTLYLEMSSLRSEDTAMYYCAVIYYGNSFAYWGQGTLVTV VL: DIVLTQSPSSLTVTAGEKVTMSCKSSQSLLNSGNLRNYLTWYQQKPGQPPKLLIYWASTRESGVPDRFTGSGSGTDFTLTISSLQAEDLAIYYCQNGYSYPFTFGSGTKLEIK |
| 0.03 µg/mL | 424G9G3 (antibody, V domains shown) VH: QVQLQQSGPEVVRPGASVKMSCKGSGYTLNNFWMHWVKQRPGQGLEWIGMIDTSNGETRLNQIFKDKATLTVDKSSKTAYMQLSSLTSEDSAVYYCAPYGNFADWGQGTTLTVSS VL: DVLLTQTPLSLPVSLGDQASISCRSSQSIVYGNGNTYLEWYLQKPGQSPKLLIYKVSSRFSGVPDRFSGSGSGTDFTLKITKVEAEDLGVYYCFQGSHVPFTFGSGTKLEIK |
| 0.0113 µg/mL | 420G10G3 (antibody, V domains shown) VH: DVQLVESGGGLVQPGGSRKLSCAASGFTFSGFGMHWIRQTAEKGLEWVAYISSGSRPIYYADTVQGRFTISRDNPKNTLFLQMTSLRSEDTAMYFCARFYYGNSFDHWGQGTLVTVSA VL: DIVMTQSPSFLTVTAGEKVTMSCKSSQSLLNSGNQKNYLTWYQQKPGQPPKLLIYWASTRESGVPDRFTGSGSGTDFTLTISSVQAEDLALYYCQNAYSFPLTFGAGTKLELK |
| 0.0112 µg/mL | 426D9F6 (antibody, V domains shown) VH: DVQLVESGGGLVQPGGSRKLSCAASGFTFSGFGMHWIRQTPEKGLEWVAYISSGSRPIYYADTVKGRFTISRDNPKNTLFLQMTSLRSEDTAMYFCARFYYGNSFDHWGQGTLVTVSA VL: DIVMTQSPSFLTVTAGEKVTMSCKSSQSLLNSGNQRNYLTWYQQKPGQPPKLLIYWASTRESGVPDRFTGSGSGTDFTLTVSSVQAEDLALYYCQNAYSFPLTFGAGTKLELK |
| 0.00319 µg/mL | 35E8D2 (antibody, V domains shown) VH: QIQLVQSGPELKKPGETVRISCKASGYTFTTAGMQWVQKMPGKGLKWIGWINTHSRVPNFAEDFKGRFAFSLETSARIAYLQISNIKNEDMATYFCARLGKGNTMDFWGQGTSVTVSS VL: DIVMTQSPSSLTVTVGEKVTMSCKSSQSLLNSGNQKNYLTWYQQKPGQPPKLLIYWASTRESGVPDRFTGSGSETDFTLTISSLQAEDLAVYYCQNSYSFPLTFGGGTNLEIK |
| 0.0154 µg/mL | 430B3F1 (antibody, V domains shown) VH: DVQLVESGGGLVQPGGSRKLSCAASGFTFSGFGMHWIRQTPEKGLEWVAYISSGGRPIYYADTVQGRFTISRDNPKNTLFLQMTSLRSEDTAMYFCARFYYGNSFDHWGQGTLVTISS VL: DIVMTQSPSFLTVTAGEKVTMSCKSSQSLLNSGNQKNYLTWYQQKPGQPPKLLIYWASTRESGVPDRFTGSGSGTDFTLTISSVQAEDLALYYCQNAYSFPLTFGAGTKLELK |
| 0.0236 µg/mL | 182D10F1 (antibody, V domains shown) VH: QAYLQQSGAELVRSGASVKMSCKASGYTFSSYNMHWVKQTPGQGLEWIGYIYPGNGGTNYNQKFKGKATLTADTSSSTAYMQISSLTSEDSAVYFCLTGRGFTYWGQGTLVTVSA VL: DIVMTQSPSSLTVTAGEKVTMNCKSSQSLFNSGNQKNYLTWYQQKPGQPPKLLIYRASTRESGVPDRFTGSGSGTDFTLTISSVQAEDLAVYYCQNDYSYPLTFGVGTKLELK |
| 0.0224 µg/mL | 426H6E11 (antibody, V domains shown) VH: DVQLVESGGGLVQPGGSRKLSCAASGFTFSGFGMHWIRQTPEKGLEWVAYISSGSRPIYYADTVQGRFTISRDNPKNTLFLQMTSLRSEDTAMYFCARFYYGNSFDHWGQGTLVTVSS VL: DIVMTQFPSFLTVTAGEKVTMSCKSSQTLLNSGNQKNYLTWYQQKPGQPPKLLIYWASTRESGVPDRFTGSGSGTDFTLTISSVQAEDLALYYCQNAYSFPLTFGAGTNLELK |
| 0.00873 µg/mL | 422E8F9 (antibody, V domains shown) VH: DVQLVESGGGLVQPGGSRKLSCAASGFTFSGFGMHWIRQTPEKGLEWVAYISSGSRPIYYADTVQGRFTISRDNPKNTLFLQMTSLRSEDTAMYFCARFYYGNSFDHWGQGTLVTVSS VL: DIVMTQSPSFLTVTAGEKVTMSCKSSQSLLNSGNQKNYLTWYQQKPGQPPKLLIYWASTRESGVPDRFTGSGSGTDFTLTISSVQAEDLALYYCQNAYSFPLTFGAGTKLELK |
| 0.149 µg/mL | 422F4B6 (antibody, V domains shown) VH: DVQLVESGGGLVQPGGSRKLSCAASGFSFSSFGMHWVRQAPEKGLEWVAYISSGSSPIYYADTVKGRFIISRDNPKNTLFLQMTSLRSEDTAMYFCARIYYGNSFAYWGQGTLVTVSA VL: DIVMTQSPSSLTVTAGEKVTMSCKSSQTLLNSGNQKNYLTWYQQKPGQPPKLLIYWASTRESGVPDRFTGSGSGTDFTLTISSVQAEDLAVYYCQNAYSYPLTFGSGTKLELK |
| 0.0114 µg/mL | 425C6D3 (antibody, V domains shown) VH: DVQLVESGGGLVQPGGSRKLSCAASGFTFSGFGMHWIRQTPEKGLEWVAYISSGSRPIYYADTVQGRFTISRDNPKNTLFLQMTSLRSEDTAMYFCARFYYGNSFDHWGQGTLVTVSS VL: DIVMTQSPSFLTVTAGEKVTMSCKSSQSLLNSGNQKNYLTWYQQKPGQPPKLLIYWASTRESGVPDRFTGSGSGTDFTLTISSVQAEDLALYYCQNAYSFPLTFGAGTKLELK |
| 0.00813 µg/mL | 226A4B5 (antibody, V domains shown) VH: QAYLQQSGAELVRSGASVRMSCKASGFTFTSYNIHWVKQTPGQGLEWIGYIYPGSGGSNYNQKFMGKATLTADTSSSTVYMQISSLTSEDSAVYFCATGRGFAYWGQGTLVTVSA VL: DIVMTQSPSSLTVTAGEKVTMSCKSSQSLFNSGNQKNYLTWYQQKPGQPPKLLIYRASTRESGVPDRFTGSGSGTDFTLTISSVQAEDLAVYYCQNDYSYPLTFGTGTKLELK |
| 0.00753 µg/mL | 421H4G3 (antibody, V domains shown) VH: DVQLVESGGGLVQPGGSRKLSCAASGFSFSGFGLHWIRQTPEKGLEWVAYISSGSRPIYYADTVKGRFTISRDNPKNTLFLQMTSLRSEDTAMYFCARFYFGNSFDHWGQGTLVTVST VL: DIVMTQSPSFLTVTAGEKVTMSCRSSQSLLNSGNQRNYLTWYQQKPGQPPKLLIYWASTRESGVPDRFTGSGSGTDFTLTINSVQAEDLALYYCQNAYSFPLTFGAGTKLELK |
| 0.0271 µg/mL | 203A6D5 (antibody, V domains shown) VH: QVQLKQSGPGLVQPSQSLSITCTVSGFSLTRYGVHWVRQSPGKGLEWLGVIWSGGNTDYNAAFISRLNIRKDNSKSQVFFKMNSLKPNDTAIYYCARAAYFGNSFDYWGQGTTLTVSS VL: DIVMTQSPSSLPVTAGEKVTMSCKSSQSLLNSGNQKNYLTWYQQKPGQPPKLLIYWASTRDSGVPDRFTGSGSGTDFTLTISSVQAEDLAVYYCQNNYIYPLTFGAGTKLELK |
| 0.0335 µg/mL | 207F8G5 (antibody, V domains shown) VH: QAYLQQSGAELVRSGASVKMSCKASGFTFTSYNIHWVKQTPGQGLEWIGYISPGNGGSNYNLKFKDKATLTSATSSSTAYMQISSLTSEDSAVYFCATGRGFAYWGQGTLVTVSA VL: DIVMTQSPSSLTVTPGEKVTMSCKSSQSLFNSGNQKNYLIWYQQKPGQPPKLLIYRASTRDSGVPDRFTGSGSGTDFTLTISNVQAEDLAIYYCQNDYSYPLTFGAGTKLELK |
| 0.00722 µg/mL | 420H3H9 (antibody, V domains shown) VH: DVQLVESGGGLVQPGGSRKLSCAASGFTFSSFGMHWVRQAPEKGLEWVAYISSGSSTIYYAHSVKGRFTISRDNPKNTLFLQMTSLGSEDTAMYYCARFYYGNSFAYWGQGTLVTVSA VL: DIVMTQSPSSLTVTAGEKVTLSCKSSQSLLNSGNQKNYLTWYQQKPGQPPKMLIYWASTRESGVPDRFTGSGSGTDFTLTISSVQAEDLADYYCQNAYTYPLTFGAGTRLELK |
| 0.0201 µg/mL | 222B6G5 (antibody, V domains shown) VH: QTYLQQSGAELVRSGASVKMSCKASGYTFTSYNIHWVKQTPGQGLEWIGYISPGNGGTYYNLKFKDKATLTTATSSSTAYMQISSLTSEDSAVYFCATGRGFAYWGQGTLVTVSA VL: DIVMTQSPSSLTVTPGEKVTMSCKSSQSLFNSGNQKNYLIWYQQKPGQPPKLLIYRASTRDSGVPDRFTGSGSGTDFTLTISNVQAEDLAVYYCQNDYSYPLTFGAGTKLELK |
| 0.0037 µg/mL | 425B3D5 (antibody, V domains shown) VH: DVQLVESGGGLVQPGGSRKLSCAASGFTFSGFGMHWIRQTPEKGLEWVAYISSGSRPIYYADTVQGRFTISRDNPKNTLFLQMTSLRSEDTAMYFCARFYYGNSFDHWGQGTLVTVSS VL: DIVMTQSPSFLTVTAGEKVTMSCKSSQSLLNSGNQKNYLTWYQQKPGQPPKLLIYWASTRESGVPDRFTGSGSGTDFTLTISSVQAEDLALYYCQNAYSFPLTFGAGTKLELK |
